The source of these data is patent US20110207628A1 (UNIVERSITY OF MIAMI, published 2011).

To fix the notation:
B1: PC4 and SFRS1 interacting protein 1 (Psip1) 152K-219K, phage clone (other, mouse, UniProt Q99JF8 152-219, looked up)
chain: KAEKQVDTEEAGMVTAATASNVKASPKRGRPAATEVKIPKPRGRPKVVKQPCPSDGDMVIDEDKSKKK
notes: range 152-219; Minimal overlap of 4 independent clones; For Y2H recloned into pGAD424
B2: PH181: SPRY domain containing 3 (Spryd3) 31I-215S, phage clone (other, mouse)
chain: IREIREVRAFRYQERFKHILVDGDTLSYHGNSGEVGCYVASRPLTKDSNYFEVSIVDSGVRGTIAVGLVPQYYSLDHQPGWLPDSVAYHADDGKLYNGRAKGRQFGSKCNSGDRIGCGIEPVSFDVQTAQIFFTKNGKRVGSTIMPMSPDGLFPAVGMHSLGEEVRLHLNAELGREDDSVMMVDS
notes: range 31-215; Frequency 8
B3: FLAG-tagged Tulp3 (full-length mouse Tulp3 with N-terminal FLAG tag) (other)
chain: DYKDDDDKMEAARCAPGPRGDSAFDDETLRLRQLKLDNQRALLEKKQRKKRLEPLMVQPNPEARLRRLKPRGSEEHTPLVDPQMPRSDVILHGIDGPAAFLKPEAQDLESKPQVLSVGSPAPEEGTEGSADGESPEETAPKPDLQEILQKHGILSSVNYDEEPDKEEDEGGNLSSPSARSEESAAASQKAASETGASGVTAQQGDAQLGEVENLEDFAYSPAPRGVTVKCKVTRDKKGMDRGLFPTYYMHLEREENRKIFLLAGRKRKKSKTSNYLVSTDPTDLSREGESYIGKLRSNLMGTKFTVYDHGVNPVKAQGLVEKAHTRQELAAICYETNVLGFKGPRKMSVIIPGMNMNHERIPFRPRNEHESLLSKWQNKSMENLIELHNKAPVWNDDTQSYVLNFHGRVTQASVKNFQIVHGNDPDYIVMQFGRVADDVFTLDYNYPLCALQAFAIGLSSFDSKLACE
notes: mature; Expressed from pcDNA3 in Neuro-2a cells; used as cell lysate or on membrane vesicles
B4: PH194: Growth arrest specific 6 (Gas6) 43Q-148R, phage clone (ligand, mouse, UniProt Q61592 43-148, looked up)
chain: QRRAYQVFEEAKQGHLERECVEEVCSKEEAREVFENDPETEYFYPRYQECMRKYGRPEEKNPDFAKCVQNLPDQCTPNPCDKKGTHICQDLMGNFFCVCTDGWGGR
notes: range 43-148
B5: GST-tubby-F (GST fused to full-length mouse tubby) (other, UniProt P50586 1-505, looked up)
chain: MTSKPHSDWIPYSVLDDEGSNLRQQKLDRQRALLEQKQKKKRQEPLMVQANADGRPRSRRARQSEEQAPLVESYLSSSGSTSYQVQEADSIASVQLGATRPPAPASAKKSKGAAASGGQGGAPRKEKKGKHKGTSGPATLAEDKSEAQGPVQILTVGQSDHDKDAGETAAGGGAQPSGQDLRATMQRKGISSSMSFDEDEDEDENSSSSSQLNSNTRPSSATSRKSIREAASAPSPAAPEPPVDIEVQDLEEFALRPAPQGITIKCRITRDKKGMDRGMYPTYFLHLDREDGKKVFLLAGRKRKKSKTSNYLISVDPTDLSRGGDSYIGKLRSNLMGTKFTVYDNGVNPQKASSSTLESGTLRQELAAVCYETNVLGFKGPRKMSVIVPGMNMVHERVCIRPRNEHETLLARWQNKNTESIIELQNKTPVWNDDTQSYVLNFHGRVTQASVKNFQIIHGNDPDYIVMQFGRVAEDVFTMDYNYPLCALQAFAIALSSFDSKLACE
notes: mature; Expressed in E. coli BL21(DE3) from pGEX-2T; not shown: glutathione S-transferase of pGEX-2T (Schistosoma japonicum)
B6: PH207: Microfibrillar-associated protein IA or IB (Mfap1) 160K-290E, phage clone (other)
chain: KNEEMEVMEVEDEGRSGEESESESEYEEYTDSEDEMEPRLKPVFIRKKDRVTVQEREAEALKQKELEQEAKRMAEERRKYTLKIVEEETKKELEENKRSLAALDALNTDDENDEEEYEAWKVRELKRIKRE
notes: Frequency 4; not shown: T7 capsid 10B fusion partner, linker/3C cleavage site and C-terminal biotinylation tag of the phage display construct

For assay [1], the target named is T1, FLAG-tubby-F (full-length mouse tubby with N-terminal FLAG tag) (mouse, UniProt P50586 1-505).
T1 construct: mature; also called FLAG-tagged tubby; tubby-vesicles
T1 sequence: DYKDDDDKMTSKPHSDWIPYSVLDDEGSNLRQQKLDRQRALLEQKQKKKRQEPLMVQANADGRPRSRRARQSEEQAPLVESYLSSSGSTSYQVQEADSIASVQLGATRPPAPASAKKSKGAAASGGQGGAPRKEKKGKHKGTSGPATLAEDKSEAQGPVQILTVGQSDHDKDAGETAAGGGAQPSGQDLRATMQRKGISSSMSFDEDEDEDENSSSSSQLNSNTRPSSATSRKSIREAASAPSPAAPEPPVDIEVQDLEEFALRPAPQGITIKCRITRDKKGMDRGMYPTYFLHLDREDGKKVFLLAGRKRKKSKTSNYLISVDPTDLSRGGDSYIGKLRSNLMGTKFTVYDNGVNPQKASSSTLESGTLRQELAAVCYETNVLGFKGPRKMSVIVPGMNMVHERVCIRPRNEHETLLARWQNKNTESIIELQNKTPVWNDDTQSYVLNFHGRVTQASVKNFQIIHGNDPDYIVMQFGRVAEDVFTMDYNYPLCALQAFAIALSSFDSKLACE
Kind of assay: clonal phage on immobilized FLAG-tubby-F, plaque assay.

Assay [2] has as its target T2, tubby-N (N-terminus of mouse tubby, 1M-242P), GST-free (mouse, UniProt P50586 1-242).
T2 construct: range 1-242; Expressed as GST-tubby-N in E. coli BL21(DE3), GST removed by 3C protease cleavage; also called GST-free tubby-N
T2 sequence (looked up): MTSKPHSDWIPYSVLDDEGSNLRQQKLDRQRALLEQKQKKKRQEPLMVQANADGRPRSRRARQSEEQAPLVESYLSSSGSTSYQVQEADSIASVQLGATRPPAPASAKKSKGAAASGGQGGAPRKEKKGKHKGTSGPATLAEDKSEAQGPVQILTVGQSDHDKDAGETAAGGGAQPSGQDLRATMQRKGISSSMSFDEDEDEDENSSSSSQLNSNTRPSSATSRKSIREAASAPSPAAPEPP
Kind of assay: clonal phage on immobilized tubby-N, plaque assay.

In assay [3] the target is T3, Axl-Fc (Axl extracellular domain fused to human IgG1 Fc fragment) (human).
T3 construct: extracellular domain; Bought (R&D Systems)
T3 sequence (P30530 whole entry, the tested form may be a part): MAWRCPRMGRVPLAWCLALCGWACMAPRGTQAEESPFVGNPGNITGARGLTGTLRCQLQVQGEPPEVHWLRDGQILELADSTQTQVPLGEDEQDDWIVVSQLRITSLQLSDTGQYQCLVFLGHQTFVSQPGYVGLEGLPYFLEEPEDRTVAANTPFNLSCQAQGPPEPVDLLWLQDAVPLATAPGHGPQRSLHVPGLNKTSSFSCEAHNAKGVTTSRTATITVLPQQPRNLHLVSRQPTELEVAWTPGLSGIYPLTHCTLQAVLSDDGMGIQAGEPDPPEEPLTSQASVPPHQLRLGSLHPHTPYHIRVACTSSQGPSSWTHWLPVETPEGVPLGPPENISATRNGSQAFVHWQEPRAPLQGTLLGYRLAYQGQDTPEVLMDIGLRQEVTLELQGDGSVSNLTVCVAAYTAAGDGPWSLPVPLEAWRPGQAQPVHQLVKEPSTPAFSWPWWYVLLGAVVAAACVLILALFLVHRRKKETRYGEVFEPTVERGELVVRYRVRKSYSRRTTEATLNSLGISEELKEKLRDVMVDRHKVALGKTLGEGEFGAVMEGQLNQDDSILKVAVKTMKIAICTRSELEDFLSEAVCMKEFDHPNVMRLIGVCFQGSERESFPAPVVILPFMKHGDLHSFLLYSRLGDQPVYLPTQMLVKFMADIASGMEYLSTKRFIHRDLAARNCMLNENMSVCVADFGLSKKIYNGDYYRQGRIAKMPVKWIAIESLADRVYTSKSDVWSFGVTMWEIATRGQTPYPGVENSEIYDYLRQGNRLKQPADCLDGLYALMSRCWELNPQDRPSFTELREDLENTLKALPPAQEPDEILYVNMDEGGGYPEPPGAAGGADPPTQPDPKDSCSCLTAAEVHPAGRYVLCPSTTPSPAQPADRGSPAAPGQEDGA
In words: clonal phage on immobilized Axl-Fc, plaque assay.

Assay [4] has as its target B5. Kind of assay: GST pull-down: GST-tubby with lysate of cells expressing the FLAG-tagged protein, glutathione resin, Western blot with anti-FLAG mAb. In general terms: A western blot detects proteins with antibodies after separation by electrophoresis.
Assay [5] concerns the target T4, FLAG-tagged Tulp2 (full-length mouse Tulp2 with N-terminal FLAG tag) (mouse, UniProt P46686 1-562).
T4 construct: mature; Expressed from pcDNA3 in Neuro-2a cells; used as cell lysate or on membrane vesicles
T4 sequence: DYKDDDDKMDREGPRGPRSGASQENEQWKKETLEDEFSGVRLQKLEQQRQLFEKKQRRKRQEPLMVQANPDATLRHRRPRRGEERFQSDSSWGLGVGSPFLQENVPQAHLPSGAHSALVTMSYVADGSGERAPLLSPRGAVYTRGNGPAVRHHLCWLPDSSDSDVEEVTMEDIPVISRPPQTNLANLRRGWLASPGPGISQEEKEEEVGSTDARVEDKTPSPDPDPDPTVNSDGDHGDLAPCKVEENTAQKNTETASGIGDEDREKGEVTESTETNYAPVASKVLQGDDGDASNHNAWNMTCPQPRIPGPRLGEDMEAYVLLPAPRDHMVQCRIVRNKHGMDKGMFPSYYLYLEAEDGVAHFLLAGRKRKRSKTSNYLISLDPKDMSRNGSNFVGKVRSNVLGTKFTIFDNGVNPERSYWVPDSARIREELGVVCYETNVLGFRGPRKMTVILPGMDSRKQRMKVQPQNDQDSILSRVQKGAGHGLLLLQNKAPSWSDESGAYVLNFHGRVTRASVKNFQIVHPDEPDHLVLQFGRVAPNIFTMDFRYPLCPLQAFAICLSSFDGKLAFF
Described as above.

Assay [6] concerns the target T1, FLAG-tubby-F (full-length mouse tubby …). Described as above.

Regarding B1, the “Binding to tubby-F (binding specificity to FLAG-tubby-F vs. to GFP-FLAG)” value in assay [1] was ~24 X (fold). Besides, the “Binding to tubby-N (binding specificity of clonal phage vs. control phage)” value in assay [2] is ~196 X (fold).

B2: in assay [3], the “Binding activity (pfu ratio of clonal phage binding to immobilized Axl-Fc versus blank)” value is ~1e+06 X (fold).

For the molecule B3, in assay [4], the binding result is given as “no binding”.

Take B4: the “Binding activity (pfu ratio of clonal phage binding to immobilized Axl-Fc versus blank)” value in assay [3] was ~40 X (fold).

For the molecule B5, the binding result in assay [5] and in assay [6] was “no binding” throughout.

Turning to B6, the “Binding activity (pfu ratio of clonal phage binding to immobilized Axl-Fc versus blank)” value in assay [3] is ~36700 X (fold).
